B1: Sulfotransferase 2B1 (Homo sapiens), O00204 (parent)
chain: MDGPAEPQIPGLWDTYEDDISEISQKLPGEYFRYKGVPFPVGLYSLESISLAENTQDVRDDDIFIITYPKSGTTWMIEIICLILKEGDPSWIRSVPIWERAPWCETIVGAFSLPDQYSPRLMSSHLPIQIFTKAFFSSKAKVIYMGRNPRDVVVSLYHYSKIAGQLKDPGTPDQFLRDFLKGEVQFGSWFDHIKGWLRMKGKDNFLFITYEELQQDLQGSVERICGFLGRPLGKEALGSVVAHSTFSAMKANTMSNYTLLPPSLLDHRRGAFLRKGVCGDWKNHFTVAQSEAFDRAYRKQMRGMPTFPWDEDPEEDGSPDPEPSPEPEPKPSLEPNTSLEREPRPNSSPSPSPGQASETPHPRPS
B2: U4/U6 small nuclear ribonucleoprotein Prp31 (Homo sapiens), Q8WWY3 (parent)
chain: MSLADELLADLEEAAEEEEGGSYGEEEEEPAIEDVQEETQLDLSGDSVKTIAKLWDSKMFAEIMMKIEEYISKQAKASEVMGPVEAAPEYRVIVDANNLTVEIENELNIIHKFIRDKYSKRFPELESLVPNALDYIRTVKELGNSLDKCKNNENLQQILTNATIMVVSVTASTTQGQQLSEEELERLEEACDMALELNASKHRIYEYVESRMSFIAPNLSIIIGASTAAKIMGVAGGLTNLSKMPACNIMLLGAQRKTLSGFSSTSVLPHTGYIYHSDIVQSLPPDLRRKAARLVAAKCTLAARVDSFHESTEGKVGYELKDEIERKFDKWQEPPPVKQVKPLPAPLDGQRKKRGGRRYRKMKERLGLTEIRKQANRMSFGEIEEDAYQEDLGFSLGHLGKSGSGRVRQTQVNEATKARISKTLQRTLQKQSVVYGGKSTIRDRSSGTASSVAFTPLQGLEIVNPQAAEKKVAEANQKYFSSMAEFLKVKGEKSGLMST
partner: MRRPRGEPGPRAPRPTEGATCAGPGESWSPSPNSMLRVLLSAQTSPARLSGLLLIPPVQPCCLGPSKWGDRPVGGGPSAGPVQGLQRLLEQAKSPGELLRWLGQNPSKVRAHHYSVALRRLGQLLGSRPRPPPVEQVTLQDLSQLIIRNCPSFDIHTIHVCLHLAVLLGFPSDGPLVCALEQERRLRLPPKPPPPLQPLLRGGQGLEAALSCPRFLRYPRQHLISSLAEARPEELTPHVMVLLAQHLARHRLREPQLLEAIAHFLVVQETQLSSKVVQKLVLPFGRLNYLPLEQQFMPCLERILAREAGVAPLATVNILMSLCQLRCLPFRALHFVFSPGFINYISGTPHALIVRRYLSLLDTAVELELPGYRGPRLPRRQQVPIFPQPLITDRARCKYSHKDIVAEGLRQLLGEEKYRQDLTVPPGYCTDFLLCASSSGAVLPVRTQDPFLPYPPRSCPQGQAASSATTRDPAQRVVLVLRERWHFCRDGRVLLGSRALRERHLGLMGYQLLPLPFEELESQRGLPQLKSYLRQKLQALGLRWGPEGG
B3: U4/U6 small nuclear ribonucleoprotein Prp31 (Homo sapiens), Q8WWY3 (parent)
chain: B2 chain
partner: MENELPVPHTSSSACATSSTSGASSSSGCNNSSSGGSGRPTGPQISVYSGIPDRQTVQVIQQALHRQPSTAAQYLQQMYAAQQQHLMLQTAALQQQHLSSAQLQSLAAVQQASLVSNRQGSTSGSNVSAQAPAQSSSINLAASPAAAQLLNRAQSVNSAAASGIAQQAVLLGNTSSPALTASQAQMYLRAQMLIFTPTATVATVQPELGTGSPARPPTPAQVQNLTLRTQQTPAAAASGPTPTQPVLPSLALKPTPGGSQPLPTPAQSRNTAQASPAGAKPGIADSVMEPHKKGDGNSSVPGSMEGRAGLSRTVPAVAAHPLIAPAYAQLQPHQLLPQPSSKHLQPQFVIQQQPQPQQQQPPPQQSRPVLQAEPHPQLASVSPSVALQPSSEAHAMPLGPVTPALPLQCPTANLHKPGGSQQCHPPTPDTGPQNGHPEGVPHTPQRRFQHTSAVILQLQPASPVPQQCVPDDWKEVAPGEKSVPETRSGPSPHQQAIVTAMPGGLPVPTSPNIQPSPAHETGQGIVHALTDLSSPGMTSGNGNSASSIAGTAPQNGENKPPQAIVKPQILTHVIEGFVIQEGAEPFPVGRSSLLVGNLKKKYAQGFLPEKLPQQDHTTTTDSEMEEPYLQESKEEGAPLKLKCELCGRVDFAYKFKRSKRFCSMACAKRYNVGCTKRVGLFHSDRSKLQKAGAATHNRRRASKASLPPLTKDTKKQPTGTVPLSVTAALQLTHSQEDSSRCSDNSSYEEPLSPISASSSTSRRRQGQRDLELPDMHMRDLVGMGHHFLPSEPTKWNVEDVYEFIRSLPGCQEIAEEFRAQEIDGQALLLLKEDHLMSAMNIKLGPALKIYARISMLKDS
B4: Beta-crystallin A4 (Homo sapiens), P53673 (parent)
chain: MTLQCTKSAGPWKMVVWDEDGFQGRRHEFTAECPSVLELGFETVRSLKVLSGAWVGFEHAGFQGQQYILERGEYPSWDAWGGNTAYPAERLTSFRPAACANHRDSRLTIFEQENFLGKKGELSDDYPSLQAMGWEGNEVGSFHVHSGAWVCSQFPGYRGFQYVLECDHHSGDYKHFREWGSHAPTFQVQSIRRIQQ
partner: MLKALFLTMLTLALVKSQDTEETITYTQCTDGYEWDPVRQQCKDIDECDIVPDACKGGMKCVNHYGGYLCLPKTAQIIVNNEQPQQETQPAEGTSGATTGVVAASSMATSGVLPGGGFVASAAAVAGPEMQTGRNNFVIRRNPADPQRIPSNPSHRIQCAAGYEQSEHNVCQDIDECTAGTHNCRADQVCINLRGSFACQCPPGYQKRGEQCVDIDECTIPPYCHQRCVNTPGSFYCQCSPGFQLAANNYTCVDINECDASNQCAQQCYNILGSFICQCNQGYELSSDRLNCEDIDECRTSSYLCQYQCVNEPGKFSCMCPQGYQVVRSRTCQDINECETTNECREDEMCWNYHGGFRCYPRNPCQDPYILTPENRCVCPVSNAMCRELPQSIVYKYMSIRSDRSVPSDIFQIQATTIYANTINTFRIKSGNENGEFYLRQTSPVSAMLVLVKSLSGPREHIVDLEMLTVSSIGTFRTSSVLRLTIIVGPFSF
B5: PiggyBac transposable element-derived protein 1 (Homo sapiens), Q96JS3 (parent)
chain: MYEALPGPAPENEDGLVKVKEEDPTWEQVCNSQEGSSHTQEICRLRFRHFCYQEAHGPQEALAQLRELCHQWLRPEMHTKEQIMELLVLEQFLTILPKELQPCVKTYPLESGEEAVTVLENLETGSGDTGQQASVYIQGQDMHPMVAEYQGVSLECQSLQLLPGITTLKCEPPQRPQGNPQEVSGPVPHGSAHLQEKNPRDKAVVPVFNPVRSQTLVKTEEETAQAVAAEKWSHLSLTRRNLCGNSAQETVMSLSPMTEEIVTKDRLFKAKQETSEEMEQSGEASGKPNRECAPQIPCSTPIATERTVAHLNTLKDRHPGDLWARMHISSLEYAAGDITRKGRKKDKARVSELLQGLSFSGDSDVEKDNEPEIQPAQKKLKVSCFPEKSWTKRDIKPNFPSWSALDSGLLNLKSEKLNPVELFELFFDDETFNLIVNETNNYASQKNVSLEVTVQEMRCVFGVLLLSGFMRHPRREMYWEVSDTDQNLVRDAIRRDRFELIFSNLHFADNGHLDQKDKFTKLRPLIKQMNKNFLLYAPLEEYYCFDKSMCECFDSDQFLNGKPIRIGYKIWCGTTTQGYLVWFEPYQEESTMKVDEDPDLGLGGNLVMNFADVLLERGQYPYHLCFDSFFTSVKLLSALKKKGVRATGTIRENRTEKCPLMNVEHMKKMKRGYFDFRIEENNEIILCRWYGDGIISLCSNAVGIEPVNEVSCCDADNEEIPQISQPSIVKVYDECKEGVAKMDQIISKYRVRIRSKKWYSILVSYMIDVAMNNAWQLHRACNPGASLDPLDFRRFVAHFYLEHNAHLSD
partner: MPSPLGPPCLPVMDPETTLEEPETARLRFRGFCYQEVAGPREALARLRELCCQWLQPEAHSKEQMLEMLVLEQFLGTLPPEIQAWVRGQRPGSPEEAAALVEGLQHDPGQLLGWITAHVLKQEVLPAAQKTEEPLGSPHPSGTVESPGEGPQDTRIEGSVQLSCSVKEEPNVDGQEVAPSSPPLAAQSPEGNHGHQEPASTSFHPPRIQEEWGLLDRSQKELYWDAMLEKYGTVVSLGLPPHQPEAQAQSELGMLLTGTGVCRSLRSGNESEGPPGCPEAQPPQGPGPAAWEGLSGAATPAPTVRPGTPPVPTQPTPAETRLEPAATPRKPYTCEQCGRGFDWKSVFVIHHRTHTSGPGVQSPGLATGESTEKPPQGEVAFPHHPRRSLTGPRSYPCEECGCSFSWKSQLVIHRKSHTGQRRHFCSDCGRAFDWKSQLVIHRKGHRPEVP

Variants of: B1
Conditions: with st1b1_human SULT1B1, O43704
Sequence of st1b1_human SULT1B1, O43704 (O43704 whole entry): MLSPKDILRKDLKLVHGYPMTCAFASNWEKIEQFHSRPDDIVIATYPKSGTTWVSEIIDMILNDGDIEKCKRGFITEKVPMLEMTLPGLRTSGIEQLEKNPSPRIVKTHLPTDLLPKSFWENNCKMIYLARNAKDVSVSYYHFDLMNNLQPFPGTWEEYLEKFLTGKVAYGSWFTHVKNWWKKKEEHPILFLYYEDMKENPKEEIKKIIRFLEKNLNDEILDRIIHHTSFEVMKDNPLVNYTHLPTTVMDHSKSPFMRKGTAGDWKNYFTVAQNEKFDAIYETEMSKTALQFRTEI

Variant | effect of a mutation on the interaction
D191N | with no effect

Variants of: B1
Conditions: with st1a1_human SULT1A1, P50225
Sequence of st1a1_human SULT1A1, P50225 (P50225 whole entry, looked up): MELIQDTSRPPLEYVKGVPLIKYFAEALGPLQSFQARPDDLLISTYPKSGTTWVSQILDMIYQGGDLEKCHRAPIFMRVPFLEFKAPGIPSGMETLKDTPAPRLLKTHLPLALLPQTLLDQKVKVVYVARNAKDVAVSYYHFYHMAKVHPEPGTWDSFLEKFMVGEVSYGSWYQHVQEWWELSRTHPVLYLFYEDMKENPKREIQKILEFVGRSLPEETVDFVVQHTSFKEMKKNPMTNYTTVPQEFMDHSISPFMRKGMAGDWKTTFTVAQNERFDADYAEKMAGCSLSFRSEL

Variant | effect of a mutation on the interaction
D191N | with no effect

Variants of: B2
Conditions: with fastk_human FASTK

Variant | effect of a mutation on the interaction
L107V | with no effect

Variants of: B3
Conditions: with PHC2, Q8IXK0-5

Variant | effect of a mutation on the interaction
L107V | with no effect

Variants of: B4
Conditions: with fbln3_human EFEMP1, Q12805

Variant | effect of a mutation on the interaction
L69P | disrupting interaction strength
F94S | disrupting interaction strength
V36M | disrupting interaction strength

Variants of: B5
Conditions: with zn446_human ZNF446, Q9NWS9

Variant | effect of a mutation on the interaction
P256L | with no effect
H806D | with no effect
Q248E | with no effect
